In US20130079499A1:
Like-named read-outs stand apart in the source and are kept apart here.

Key:
[1] = molecular target: γ-globulin formulation (KAKETSUKEN) that was a human antibody (human); experiment: batch adsorption: 3.0 mL of 10 mg/mL IgG on 0.5 mL FcRm56b-immobilised gel, PBS pH 7.0, eluted at pH 3.0, A280
[2] = molecular target: γ-globulin formulation (KAKETSUKEN) that was a human antibody (human); experiment: batch adsorption: 3.0 mL of 10 mg/mL IgG on 0.5 mL FcRm56b-immobilised gel (18.7 mg FcRm56b per mL gel), PBS pH 7.0, eluted at pH 3.0, A280
[3] = molecular target: γ-globulin formulation (KAKETSUKEN) that was a human antibody (human); experiment: column of FcRm56b-immobilised gel loaded with IgG in PBS pH 7.0; eluted with 100 mM citric acid buffer of the given pH; R=A/(A+B)x100, A280
[4] = molecular target: γ-globulin formulation (KAKETSUKEN) that was a human antibody (human); experiment: batch adsorption: 3.0 mL of 10 mg/mL IgG on 0.4 mL FcRm57b-immobilised gel, PBS pH 7.0, eluted at pH 3.0, A280
[5] = molecular target: γ-globulin formulation (KAKETSUKEN) that was a human antibody (human); experiment: batch adsorption: 3.0 mL of 10 mg/mL IgG on 0.4 mL FcRm57b-immobilised gel (14.2 mg FcRm57b per mL gel), PBS pH 7.0, eluted at pH 3.0, A280
[6] = molecular target: γ-globulin formulation (KAKETSUKEN) that was a human antibody (human); experiment: column of FcRm57b-immobilised gel loaded with IgG in PBS pH 7.0; eluted with 100 mM citric acid buffer of the given pH; R=A/(A+B)x100, A280
[7] = molecular target: γ-globulin formulation (KAKETSUKEN) that was a human antibody (human); experiment: batch adsorption: 0.5 mL of 10 mg/mL IgG on 0.1 mL FcRm19-immobilised gel, PBS pH 7.0, eluted at pH 3.0, A280
[8] = molecular target: γ-globulin formulation (KAKETSUKEN) that was a human antibody (human); experiment: batch adsorption: 0.5 mL of 10 mg/mL IgG on 0.1 mL FcRm19-immobilised gel (23.0 mg FcRm19 per mL gel), PBS pH 7.0, eluted at pH 3.0, A280
[9] = molecular target: γ-globulin formulation (KAKETSUKEN) that was a human antibody (human); experiment: column of FcRm19-immobilised gel loaded with IgG in PBS pH 7.0; eluted with 100 mM citric acid buffer of the given pH; R=A/(A+B)x100, A280
[10] = molecular target: γ-globulin formulation (KAKETSUKEN) that was a human antibody (human); experiment: ELISA: human γ-globulin coated 1 µg/well, culture supernatant diluted 5x, HRP anti-His-Tag detection
[11] = molecular target: γ-globulin formulation (KAKETSUKEN) that was a human antibody (human); experiment: as above; remark: listed apart in the source
[12] = molecular target: γ-globulin formulation (KAKETSUKEN) that was a human antibody (human); experiment: batch adsorption: 0.5 mL of 10 mg/mL IgG on 0.05 mL FcRm48-immobilised gel, PBS pH 7.0, eluted at pH 3.0, A280
[13] = molecular target: γ-globulin formulation (KAKETSUKEN) that was a human antibody (human); experiment: batch adsorption: 0.5 mL of 10 mg/mL IgG on 0.05 mL FcRm48-immobilised gel (13.6 mg FcRm48 per mL gel), PBS pH 7.0, eluted at pH 3.0, A280
[14] = molecular target: γ-globulin formulation (KAKETSUKEN) that was a human antibody (human); experiment: column of FcRm48-immobilised gel loaded with IgG in PBS pH 7.0; eluted with 100 mM citric acid buffer of the given pH; R=A/(A+B)x100, A280
[15] = molecular target: γ-globulin formulation (KAKETSUKEN) that was a human antibody (human); experiment: batch adsorption: 0.5 mL of 10 mg/mL IgG on 0.1 mL FcRm32-immobilised gel, PBS pH 7.0, eluted at pH 3.0, A280
[16] = molecular target: γ-globulin formulation (KAKETSUKEN) that was a human antibody (human); experiment: batch adsorption: 0.5 mL of 10 mg/mL IgG on 0.1 mL FcRm32-immobilised gel (19.3 mg FcRm32 per mL gel), PBS pH 7.0, eluted at pH 3.0, A280
[17] = molecular target: γ-globulin formulation (KAKETSUKEN) that was a human antibody (human); experiment: column of FcRm32-immobilised gel loaded with IgG in PBS pH 7.0; eluted with 100 mM citric acid buffer of the given pH; R=A/(A+B)x100, A280
[18] = molecular target: γ-globulin formulation (KAKETSUKEN) that was a human antibody (human); experiment: batch adsorption: 0.5 mL of 10 mg/mL IgG on 0.05 mL FcRm36b-immobilised gel, PBS pH 7.0, eluted at pH 3.0, A280
[19] = molecular target: γ-globulin formulation (KAKETSUKEN) that was a human antibody (human); experiment: column of FcRm36b-immobilised gel loaded with IgG in PBS pH 7.0; eluted with 100 mM citric acid buffer of the given pH; R=A/(A+B)x100, A280
[20] = molecular target: γ-globulin formulation (KAKETSUKEN) that was a human antibody (human); experiment: batch adsorption: 0.5 mL of 10 mg/mL IgG on 0.05 mL FcRm36b-immobilised gel (21.0 mg FcRm36b per mL gel), PBS pH 7.0, eluted at pH 3.0, A280

B1: Fc binding protein FcRm56b (56 amino acids of a wild-type Fc binding protein substituted) (receptor)
chain: KIEEAMGQVDTPKAVIKLQPPWVSVFLGESVTMLCEVPHLSGAGSTQWFRNDTAIQASTPTYHIASASEDDSGEYRCQRGLSGRSDPILLEVHRGWLLLQVSARVLIEGEPLVLRCHAWRDKQVHNVLFYHNGKAFKFFHRNTTLTIPRTNTSHSGTYHCSGMGRHRYTSAGTLVSVKELFPAPVLTASVASPLHEGTQVTLSCVTKLLIQRPGLQLYFSFYKGSETLRGRDTSSEYQILAARREDSGLYWCEAATEDGNVVKRSPELELQVLGHQQPTPVHHHHHH
Q: Which amount of eluted IgG [1] does the source give for B1 here?
A: 11.5 mg

Q: And the amount of adsorbed IgG per mL of the gel (mg per mL of gel) [2]?
A: 23

Q: And the percentage of antibody elution at pH 3.0 [3]?
A: 99.7%

Q: And the percentage of antibody elution at pH 3.4 [3]?
A: 99.5%

Q: What about the percentage of antibody elution at pH 3.8 [3] of the same binder?
A: 94.5%

Q: And the percentage of antibody elution at pH 4.2 [3]?
A: 73%

B2: Fc binding protein FcRm57b (57 amino acids of a wild-type Fc binding protein substituted) (receptor)
chain: KIEEAMGQVDTPKAVIKLQPPWVSVFLGESVTMLCEVPHLSGAGSTQWFRNDTAIQASTPTFHIASASEDDSGEYRCQRGLSGRSDPILLEVHRGWLLLQVSARVLIEGEPLVLRCHAWRDKLVHNVLFYHNGKAFKFFHRNTTLTIPRTNTSHSGTYHCSGMGRHRYTSAGTLVSVKELFPAPVLTASVASPLLEGTPVTLSCVTKLLIQRPGLQLYFSFFKGGETLRGRDTSSEYQILAARREDSGLYWCEAATEDGNVVKRSPELELQVLGHQQPTPVHHHHHH
Q: B2 was tested. Which amount of eluted IgG [4] did it give?
A: 6.67 mg

Q: And the amount of adsorbed IgG per mL of the gel (mg per mL of gel) [5]?
A: 16.7

Q: What about the percentage of antibody elution at pH 3.0 [6] of the same binder?
A: 99.3%

Q: What about the percentage of antibody elution at pH 3.4 [6] of the same binder?
A: 99.6%

Q: And the percentage of antibody elution at pH 3.8 [6]?
A: 90.2%

Q: And the percentage of antibody elution at pH 4.2 [6]?
A: 66.2%

B3: Fc binding protein FcRm19 (19 amino acids of a wild-type Fc binding protein substituted) (receptor)
chain: KIEEAMGQVDTPKAVIKLQPPWVSVFQEESVTLHCEVPHLPGSSSTQWFLNGTAIQTSTPTYHITSASEDDSGEYRCQRGLSGRSDPIQLEVHRGWLLLQVSSRVLTEGEPLALRCHAWKDKLVYNVLYYRNGKAFKFFHWNSNLTILKTNMSHSGTYHCSGMGKHRYTSAGISVTVKELFPAPVLTASVTSPLLEGTPVTLSCETKLLLQRPGLQLYFSFYMGSKTLRGRDTSSEYQILTARREDSGLYWCEAATEDGNVLKRSPELELQVLGHQQPTPVHHHHHH
Q: How did the amount of the eluted IgG [7] turn out when B3 was run?
A: 2.1 mg

Q: What about the amount of adsorbed IgG per mL of the gel (mg per mL of gel) [8] of the same binder?
A: 21

Q: What about the percentage of antibody elution at pH 3.0 [9] of the same binder?
A: 99.1%

Q: And the percentage of antibody elution at pH 3.4 [9]?
A: 87.4%

Q: What about the percentage of antibody elution at pH 3.8 [9] of the same binder?
A: 51.3%

Q: And the percentage of antibody elution at pH 4.2 [9]?
A: 22%

B4: wild-type Fc binding protein (Fc binding protein with no amino acid substitution) expressed by the pETFcR transformant (receptor)
chain: KIEEAMGQVDTTKAVITLQPPWVSVFQEETVTLHCEVLHLPGSSSTQWFLNGTATQTSTPSYRITSASVNDSGEYRCQRGLSGRSDPIQLEIHRGWLLLQVSSRVFTEGEPLALRCHAWKDKLVYNVLYYRNGKAFKFFHWNSNLTILKTNISHNGTYHCSGMGKHRYTSAGISVTVKELFPAPVLNASVTSPLLEGNLVTLSCETKLLLQRPGLQLYFSFYMGSKTLRGRNTSSEYQILTARREDSGLYWCEAATEDGNVLKRSPELELQVLGLQLPTPVHHHHHH
Q: What does the source list for B4?
A: OD450 nm [10]: 0.22 OD450 nm; OD450 nm [11]: 0.14 OD450 nm

B5: Fc binding protein FcRm48 (48 amino acids of a wild-type Fc binding protein substituted) (receptor)
chain: KIEEAMGQVDTPKAVIKLQPPWVSVFLGESVTMHCEAPHLSGTGSTQWFLNDTAIQASTPTYHITSASEDDSGEYRCQRGLSGRSDPILLEVHRGWLLLQVSSRVLTEGEPLALRCHAWRDKQVHNVLFYHNGKAFKFFHRNSTLTIPRTNTSHSGTYHCSGMGRHRYTSAGTLVSVKELFPAPVLTASVTSPLHEGTQVTLSCVTKLLIQRPGLQLYFSFYKGSKTLRGRDTSSEYQILAARREDSGLYWCVAATEDGNVLKRSPELELQVLGHQQPTPVHHHHHH
Q: What does the source list for B5?
A: amount of eluted IgG [12]: 0.94 mg; amount of adsorbed IgG per mL of the gel (mg per mL of gel) [13]: 18.8; percentage of antibody elution at pH 3.0 [14]: 99.2%; percentage of antibody elution at pH 3.4 [14]: 100%; percentage of antibody elution at pH 3.8 [14]: 98.2%; percentage of antibody elution at pH 4.2 [14]: 81.9%

B6: Fc binding protein FcRm32 (32 amino acids of a wild-type Fc binding protein substituted) (receptor)
chain: KIEEAMGQVDTPKAVIKLQPPWVSVFQGESVTLHCEAPHLSGSSSTQWFLNDTAIQASTPTYHITSASEDDSGEYRCQRGLSGRSDPIQLEVHRGWLLLQVSSRVLTEGEPLALRCHAWKDKLVHNVLYYHNGKAFKFFHRNSNLTIPKTNTSHSGTYHCSGMGRHRYTSAGTSVTVKELFPAPVLTASVTSPLHEGTQVTLSCETKLLLQRPGLQLYFSFYKGSKTLRGRDTSSEYQILTARREDSGLYWCEAATEDGNVLKRSPELELQVLGHQQPTPVHHHHHH
Q: With B6 as the binder, how does the amount of eluted IgG [15] read?
A: 1.98 mg

Q: And the amount of adsorbed IgG per mL of the gel (mg per mL of gel) [16]?
A: 19.8

Q: What about the percentage of antibody elution at pH 3.0 [17] of the same binder?
A: 98.7%

Q: What about the percentage of antibody elution at pH 3.4 [17] of the same binder?
A: 99.3%

Q: And the percentage of antibody elution at pH 3.8 [17]?
A: 97.9%

Q: And the percentage of antibody elution at pH 4.2 [17]?
A: 82.8%

B7: Fc binding protein FcRm36b (36 amino acids of a wild-type Fc binding protein substituted) (receptor)
chain: KIEEAMGQVDTPKAVIKLQPPWVSVFLGESVTMHCEAPHLSGSGSTQWFLNDTAIQASTPTYHITSASEDDSGEYRCQRGLSGRSDPIQLEVHRGWLLLQVSSRVLTEGEPLALRCHAWKDKLVHNVLYYHNGKAFKFFHRNSTLTIPKTNTSHSGTYHCSGMGRHRYTSAGTSVTVKELFPAPVLTASVTSPLHEGTQVTLSCETKLLLQRPGLQLYFSFYKGSKTLRGRDTSSEYQILTARREDSGLYWCEAATEDGNVLKRSPELELQVLGHQQPTPVHHHHHH
Q: Which results are given for B7?
A: amount of eluted IgG [18]: 1.44 mg; percentage of antibody elution at pH 3.0 [19]: 99.5%; percentage of antibody elution at pH 3.4 [19]: 99.4%; percentage of antibody elution at pH 3.8 [19]: 92.2%; percentage of antibody elution at pH 4.2 [19]: 64%; amount of adsorbed IgG per mL of the gel (mg per mL of gel) [20]: 28.8
